Source: patent publication US20160257760A1 (OXFORD BIOTHERAPEUTICS, published 2016)

How the values were obtained:
Assay in all cases: peptide microarray, 1 µg/mL LY75_A1, anti-human IgG Alexa 647
TYSNFHPL = target: T1, TYSNFHPL
T1 peptide: TYSNFHPL
Method: (§1) The chip comprised three panels such that the experiment was performed in triplicate. […] The binding assay was performed under the following conditions:—The microarray comprising the contiguous peptides in triplicate was washed with 1 mL of binding buffer at 4° C. for 20 min. […] The array was again washed with 0.5 mL of washing buffer at 4° C. for 30 min.

LTYSNFHP = target: T2, LTYSNFHP
T2 peptide: LTYSNFHP
Method: as §1

ELTYSNFH = target: T3, ELTYSNFH
T3 peptide: ELTYSNFH
Method: as §1

Measured: binding result

B1: LY75_A1 monoclonal antibody (antibody, V domains shown)
VH: EVQLVESGGGLVKPGGSLRLSCAASGFTYSNAWMSWVRQAPGKGLEWVGRIKSKTDGGTTDYAAPVQGRFTISRDDSKNTLYLQMNSLKTEDTAVYYCTIFGVVSFDYWGQGTLVTVSS
VL: DVQMTQSPSSLSASVGDRVTITCRASQSISDYLSWYQQRPGKAPNLLIYAASNLKTGVPSRFSGSGSGTDFTLTISTLQPEDFATYYCQQSYRSPWTFGQGTKVEIKR
notes: also called LY75A1 antibody; LY75_A1 antibody
binds: TYSNFHPL | LTYSNFHP | ELTYSNFH
